Patent US20100092494A1 (BOARD OF TRUSTEES OF THE UNIVERSITY OF ILLINOIS, published 2010)

Tests used:
[1] = target: T1, human basigin-2 (human, UniProt P35613 140-385); test: Sulfo-SBED biotin label transfer on HESC and CCL-2 cells, basigin immunoprecipitation, neutravidin-HRP blot
T1 construct: Endogenous glycosylated protein of HESC uterine fibroblasts and CCL-2 (HeLa) cells, found in the membrane fraction; also called basigin isoform 2; 50 kDa basigin protein
T1 sequence: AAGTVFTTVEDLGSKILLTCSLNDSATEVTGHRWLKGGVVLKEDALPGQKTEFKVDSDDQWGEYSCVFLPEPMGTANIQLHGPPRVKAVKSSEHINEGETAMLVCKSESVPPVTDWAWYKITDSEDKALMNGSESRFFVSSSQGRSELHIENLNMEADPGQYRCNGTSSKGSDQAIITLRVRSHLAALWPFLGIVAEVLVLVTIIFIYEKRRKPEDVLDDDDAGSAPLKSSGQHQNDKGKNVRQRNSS
Description: Biotin label transfer from rBSG to CCL-2 cells (HeLa) was performed by treating cells with increasing concentrations of SEED-labeled rBSG (0, 0.05, 0.5, 5, and 50 μg/ml) for 10 minutes at 37° C. Following 5 minutes of UV light treatment, cells were washed twice with PBS and total cell lysates collected using IP buffer. Proteins from labeled cells were precipitated with either neutravidin beads (FIGS. 7A and 7B) or immunoprecipitated with the P2C2 mAb (FIGS. 7C and 7D). Precipitated proteins were resolved by 15% SDS-PAGE in duplicate, and immunoblotted with either Streptavidin-HRP (FIGS. 7A and 7C) or with the R&D Systems anti-hEMMPRIN pAb (FIGS. 7B and 7D). The Santa Cruz goat anti-rabbit (anti-mouse, anti-human depleted)-HRP secondary antibody used for this experiment was previously shown to not cross-react with the P2C2 mAb. The basigin-2 band is indicated with an arrowhead and the basigin-3/rBSG band is indicated with an arrow. This experiment was performed twice with similar results.
Immunoprecipitation and Immunoblot Analysis. Immunoprecipitation of basigin was performed using the monoclonal antibody P2C2. Ten to […] of antibody added to 1 mg soluble protein was incubated overnight at 4° C. with rocking, and immune complexes were collected on protein G SEPHAROSE beads for 4 hours at 4° C. Immunoprecipitated proteins were resolved by SDS-PAGE using standard methods. […]

[2] = target: the molecule itself; test: PFO-PAGE and immunoblot

B1: recombinant human basigin extracellular domain construct (rBSG) (ligand)
chain: WSHPQFEKAGTVFTTVEDLGSKILLTCSLNDSATEVTGHRWLKGGVVLKEDALPGQKTEFKVDSDDQWGEYSCVFLPEPMGTANIQLHGPPRVKAVKSSEHINEGETAMLVCKSESVPPVTDWAWYKITDSEDKALMNGSESRFFVSSSQGRSELHIENLNMEADPGQYRCNGTSSKGSDQAIITLRVRSHLHHHHHH
notes: also called recombinant basigin; soluble rBSG
[1]
  binding result: binds
[2]
  binding result: binds
